The values that follow come from article doi:10.1101/2025.11.17.688760.

In the series the test system is P68135. The series is described as follows: TIRF microscopy of single actin filaments. The settings on record: other: TIRF microscopy of single actin filaments (depolymerization).

As for alpha skeletal actin from rabbit muscle, the “barbed end depolymerization rate (effective off-rate of ADP and ADP.Pi subunits)” value is reported as 3.4 ± 0.7 sub/s (mean ± SD).
